The values below come from patent publication US6028053A, “Peptide inhibitors of a phosphotyrosine-binding domain containing protein” (Mount Sinai Hospital Corporation, priority 1998, dated 2000).

One data set deals with cells. Kind of data set: Peptide localization in cells (anti-phospho-Tyr immunofluorescence). Format: cell-based. The procedure: To examine peptide localization, cells were treated with P-1 or P-2 peptide for 4 hours, stained with anti-phospho-Tyr and rhodamine-conjugated antibody, and observed with a confocal microscope. A Z-scan was carried out to make images in each 0.15 μm section from the top of the cells to the bottom. […] Cells treated with P-1 peptide were not stained by anti-phospho-Tyr antibody, confirming the specifity of the immunofluoroscence staining. In a time course analysis, cells were serum-starved for 24 hours, and incubated with peptide (5 μM) for various time periods. Cells were stained by anti-phosphoro-Tyr antibody and analyzed under an immunofluoroscence microscope. Cells treated with P-2 peptide retained phospho-peptide for up to 24 hrs. In a dose response experiment, cells were starved in serum-free medium for 24 hours, cultured with peptide at various concentrations, and stained with anti-phospho-tyrosine antibody (4G10) to detect the peptide containing phospho-tyrosine residue (red) and by Hoechst 33258 for nuclei (blue). P-2 peptide was detected at 0.5 μM and 1 μM in cells .

Data set [1] has as its target GST-Shc PTB domain fusion protein (human) (UniProt P29353). Kind of data set: not stated in Table 2; the same number as the IC50 of Table 1.
Data set [2] has the same target. Kind of data set: SPR (Biacore) competition, Table 1. (SPR reads the build-up and loss of mass on a sensor chip optically.)
For data set [3] the target is unchanged. Briefly: competition with EGF-R for GST-ShcB beads, dose response, anti-phospho-Tyr blot.
Data set [4] shares this target. Briefly: SPR (Biacore) competition, Table 1. The source holds these as a separate data set.
The target is the same in data set [5]. Kind of data set: not stated in Table 2; presumably as the IC50 of Table 1.

Square brackets hold non-standard residues; d marks the D form. Ends that are not written are not given here. pY = N[C@@H](Cc1ccc(OP(=O)(O)O)cc1)C(=O)O

Sequence of GST-Shc PTB domain fusion protein (human) (P29353 111-319 limits assumed): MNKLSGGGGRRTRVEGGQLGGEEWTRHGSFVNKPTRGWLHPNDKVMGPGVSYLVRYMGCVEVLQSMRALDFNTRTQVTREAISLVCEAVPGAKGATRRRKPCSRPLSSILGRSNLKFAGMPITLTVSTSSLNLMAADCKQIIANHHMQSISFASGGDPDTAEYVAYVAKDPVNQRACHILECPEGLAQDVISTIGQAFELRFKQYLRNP

Regarding “RQIKIWFQNRRMKWKKHIIENPQYFSD [P-1, RQIKIWFQNRRMKWKK-HIIENPQYFSD]”, in the data set with cells, the “peptide localization in cells” value is given as “not stained”.

In data set [1], “Wt NGF receptor phosphopeptide His-Ile-Ile-Glu-Asn-Pro-Gln-P.Tyr-Phe-Ser-Asp” displayed a value printed beside the sequence without a heading of 175 nM. This molecule yielded a fold increase of the affinity against the peptide with Ala at -2 in data set [2] of 10 fold.

B1: C-1, Cyclo-(IENPQpYFSPG) (peptide)
peptide: cyclo(IENPQ[pY]FSPG)
SMILES: CC[C@H](C)[C@@H]1NC(=O)CNC(=O)[C@@H]2CCCN2C(=O)[C@H](CO)NC(=O)[C@H](Cc2ccccc2)NC(=O)[C@H](Cc2ccc(OP(=O)(O)O)cc2)NC(=O)[C@H](CCC(N)=O)NC(=O)[C@@H]2CCCN2C(=O)[C@H](CC(N)=O)NC(=O)[C@H](CCC(=O)O)NC1=O
With B1, the percent inhibition at 100 µM in data set [3] came out at 50%.

In turn, HAAENPQ[pY]FSD [Ala-6, Ala-5 NGF receptor peptide H-A-A-E-N-P-Q-p.Y-F-S-D] had a fold lower affinity against a phosphopeptide with an Ile at either position -6 or -5 in data set [4] of 3 fold.

Take IENPQ[pY]FSD [Trk wild type truncated phosphopeptide IENPQpYFSD]: the value printed beside the sequence without a heading in data set [5] was 4 µM.
